Patent publication US20250027068
Changes are numbered by the printed parent chain.

B1: PRT-666 (protein)
chain: MQITSVWTKGVTPPTPEQFRNNNEDVFHAPYLANQGWYDITKTFNGKDDLLCGAATAGNMLHWWFDQNKTEIEAYLKKHPEKQKIIFNNQELFDLKKAIDTKDSQTNSQLFNYFRDKAFPNLSARQLGVMPDLVLDMFINGYYLNVTKTQSTDVNRPYQDKDKRGGIFDAVFTRGDQTTLLTSRHDLKNKGLNEISDLIKQELTEGKALALSHTYANVSINHVINLWGADFNAEGNLEAIYVTDSDSNASIGMKKYFVGVNASGKVAISAKKIEGENIGAQVLGLFTLSSGKDIWQKLSLEHHHHHH
B2: PRT-668 (protein)
chain: MQITSVWTKGVTPLTPEQFRYNNYDVFHAPYLAGQGWYDITKAFDGKDNLLCGAATAGNMLHWWFDQNKTEIEAYLSKYPEKQKIIFNNQELFDLRKAINTKDSQTNSELFNYFRDKAFPNLSARQLGVMPDLVLDMFINGYYLNVFKTQSTDVNRPYQDKDKRGGIFDAVFNRGDQTKLLTARHDLKNKGLNDISTLIKQELSSGRALALSHTTANVSISHVINLWGADFNAEGNLEAIYVTDSDDDSNIGMKKYKVGINASGHVAISAKKIEGENIGAQVLGLFTLSSGKDIWQKLSLEHHHHHH
B3: PRT-565 (protein)
chain: MANQEIRYSEATPSHITSVWTKGVTPPTQFIQNEDVLHAPYIANQGWYDITKTFNGKDDLLCGAATAGNMLHWWFDQNKEQIENYLKKHPEKQKINFNGEQMFDVKEAIDTKDSQTDSALFSYFKDKAFPYLSTKHLGVFPDHVIDMFINGYRLSLTNHGPTPVKRQTKDPRGGIFDAVFTRGDQSKLLTSRHDFKEKTLNEISQLIKQELTEGKALGLSHTYANVRINHVINLWGADFNAEGNLEAIYVTDSDSNASIGMKKYYVGVNSAGKVAISAKEIEGDNIGAQVLGLFTLSTGQDIWQQTNLEHHHHHH
B4: PRT-639 (protein)
chain: MQITSVWTKGVTPLTPEQFRYNNEDVIHAPYLAHQGWYDITKTFNGKDDLLCGAATAGNMLHWWFDQNKTEIEAYLSKHPEKQKIIFNNQELFDLKAAIDTKDSQTNSQLFNYFRDKAFPNLSARQLGVMPDLVLDMFINGYYLNVFKTQSTDVNRPYQDKDKRGGIFDAVFTRGDQTTLLTARHDLKNKGLNDISTIIKQELTEGRALALSHTYANVSISHVINLWGADFNAEGNLEAIYVTDSDADASIGMKKYFVGINAHGHVAISAKKIEGENIGAQVLGLFTLSSGKDIWQKLSLEHHHHHH
B5: PRT-620 (protein)
chain: B4 chain with T43A, N45D, D49N, G191T, N193K, D194E, T197D, D248N
B6: PRT-654 (protein)
chain: B4 chain with T43A, N45D, D49N, Y215T, A216G, I220Y, D248N, I278V
B7: PRT-607 (protein)
chain: B4 chain with K9Y, T12K, A33E, T43A, N45D, D49N, D248N
B8: PRT-629 (protein)
chain: B4 chain with T43A, N45D, D49N, T70E, S77K, H79Y, D248N, D293E
B9: PRT-65 (protein)
chain: MANQEIRYSEVTPYHVTSVWTKGVTPPANFTQGEDVFHAPYVANQGWYDITKTFNGKDDLLCGAATAGNMLHWWFDQNKDQIKRYLEEHPEKQKINFNGEQMFDVKEAIDTKNHQLDSKLFEYFKEKAFPYLSTKHLGVFPDLVIDMFINGYRLSLTNHGPTPVKEGSKDPRGGIFDAVFTRGDQSKLLTSRHDFKEKNLKEISDLIKKELTEGKALGLSHTYANVRINHVINLWGADFDSNGNLKAIYVTDSDSNASIGMKKYFVGVNSAGKVAISAKEIKEDNIGAQVLGLFTLSTGQDSWNQTN
B10: PRT-532 (protein)
chain: MANQEIRYSEETPKTITSIWTKGVTPPTDFIKNEDVLHAPYIANQGWYDITKTFNGKDDLLCGAATAGNMLHWWFDQNKEEIENYLKKHPEKQKINFNGEQMFDVKEAIDTKDSQTDSKLFEYFKDKAFPYLSTKHLGVMPDLVLDMFINGYYLSLGKHGPTPVKRGTKDPRGGIFDAVFTRGDQSKLLTARHDFKEKTLNEISDLIKQELTEGKALALSHTYANVRINHVINLWGADFNSEGNLEAIYVTDSDSNASIGMKKYYVGVNAAGKVAISAKEIEGDNIGAQVLGLFTLSTGQDIWNQTNLEHHHHHH
B11: PRT-671 (protein)
chain: MQITTVWTKGVTPPTPEQFRNNNEDVFHAPYLPHQGWYDITKAFDGKDNLLCGAATAGNMLHWWFDQNKEEIEAYLKKYPEKQKIIFNNQELFDLRKAINTKDSQTNSQLFNYFRDKAFPNLSARQLGVMPDHVLDMFINGYYLNVFKTQSTDVNRPYQTRDKRGGIFDAVFNRGDQTTLLTERHDLYNKGLDDISTLIKQELSSGKALGLSHTYANVSISHVINLWGADFNAEGNLEAIYVTDSDDDASIGMKKYYVGKNASGHVRISAKKIEGENIGAQVLGLFTLSTGKDIWQKLSLEHHHHHH

Target: pooled human IgG

| Protein | Enzyme Activity Endpoint Assay (purified): Fab′2 | Enzyme Activity Endpoint Assay (purified): Fc | Enzyme Activity Endpoint Assay (purified): IgG | Enzyme Activity Endpoint Assay (purified): scIgG |
| --- | --- | --- | --- | --- |
| B1 | 897 ng/µL | 132 ng/µL | 66 ng/µL | 0 ng/µL |
| B2 | 563 ng/µL | 0 ng/µL | 1070 ng/µL | 14 ng/µL |
| B3 | 783 ng/µL | 471 ng/µL | 0 ng/µL | 0 ng/µL |
| B4 | 788 ng/µL | 450 ng/µL | 0 ng/µL | 0 ng/µL |
| B5 | 792 ng/µL | 448 ng/µL | 0 ng/µL | 0 ng/µL |
| B6 | 401 ng/µL | 0 ng/µL | 1170 ng/µL | 11 ng/µL |
| B7 | 779 ng/µL | 470 ng/µL | 0 ng/µL | 0 ng/µL |
| B8 | 542 ng/µL | 425 ng/µL | 161 ng/µL | 461 ng/µL |
| B9 | 35 ng/µL | 100 ng/µL | 26 ng/µL | 34 ng/µL |
| B10 | 409 ng/µL | 118 ng/µL | 506 ng/µL | 217 ng/µL |
| B11 | 97 ng/µL | 294 ng/µL | 244 ng/µL | 864 ng/µL |
